The term Kd denotes the constant that tells how readily two partners part at equilibrium.

For series [1], the target named is GLUT1 (glucose transporter band 4.5) (Homo sapiens) (UniProt P11166). Nature of the series: ELONA. The note with it: ELONA: protein coated at 10 nM in carbonate/bicarbonate pH 9.6; aptamer (1.5625 nM-5 uM, 95 C 5 min then snap-cooled) in 1x DPBS, 0.55 mM MgCl2, 0.05% ….
Series [2] deals with T1, Glycophorin A (Homo sapiens, UniProt P02724 20-91). Nature of the series: ELONA; one-site fit, R2 0.857; ELONA: protein coated at 10 nM in carbonate/bicarbonate pH 9.6; aptamer (1.5625 nM-5 uM, 95 C 5 min then snap-cooled) in 1x DPBS, 0.55 mM MgCl2, 0.05% Tween-20, 1% BSA, 1 h, room temperature; SA-HRP/TMB read-out at 450 nm. The conditions noted are these: protein: recombinant; label: 5' biotin; hairpin, 3 loops predicted by Mfold; CD indicates parallel G4.

Series [3] has as its target T1, Glycophorin A. The series is described as follows: ELONA; one-site fit, R2 0.948; text says low micromolar; ELONA: protein coated at 10 nM in carbonate/bicarbonate pH 9.6; aptamer (1.5625 nM-5 uM, 95 C 5 min then snap-cooled) in 1x DPBS, 0.55 mM MgCl2, 0.05% Tween-20, 1% BSA, 1 h, room temperature; SA-HRP/TMB read-out at 450 nm. The note with it: protein: recombinant; label: 5' biotin; hairpin, 2 loops predicted by Mfold; CD B-DNA-like.

Series [4] concerns the target T1, Glycophorin A. Nature of the series: ELONA; one-site fit, R2 0.716; text says low micromolar; ELONA: protein coated at 10 nM in carbonate/bicarbonate pH 9.6; aptamer (1.5625 nM-5 uM, 95 C 5 min then snap-cooled) in 1x DPBS, 0.55 mM MgCl2, 0.05% Tween-20, 1% BSA, 1 h, room temperature; SA-HRP/TMB read-out at 450 nm. The note with it: protein: recombinant; label: 5' biotin; hairpin, 2 loops predicted by Mfold; CD indicates parallel G4.

Sequence of GLUT1 (glucose transporter band 4.5) (Homo sapiens) (P11166 whole entry): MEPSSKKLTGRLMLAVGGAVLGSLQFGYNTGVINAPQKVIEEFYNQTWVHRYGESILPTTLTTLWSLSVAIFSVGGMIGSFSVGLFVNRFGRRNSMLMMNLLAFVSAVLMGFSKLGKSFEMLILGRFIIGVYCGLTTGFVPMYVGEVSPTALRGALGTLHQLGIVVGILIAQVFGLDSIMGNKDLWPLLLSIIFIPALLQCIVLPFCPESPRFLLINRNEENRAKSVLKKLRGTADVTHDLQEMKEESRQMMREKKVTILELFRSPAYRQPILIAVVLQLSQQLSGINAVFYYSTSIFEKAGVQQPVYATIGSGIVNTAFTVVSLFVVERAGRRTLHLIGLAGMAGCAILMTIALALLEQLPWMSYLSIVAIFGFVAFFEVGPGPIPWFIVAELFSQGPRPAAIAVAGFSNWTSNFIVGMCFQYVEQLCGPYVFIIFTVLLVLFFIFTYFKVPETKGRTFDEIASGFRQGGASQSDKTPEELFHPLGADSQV

As to “ATCCAGAGTGACGCAGCACGGGTTGGGGCTGGTTGTGTGTTGTTTTTTTGGCTGTATGTGGACACGGTGGCTTAGT [N1 aptamer (76 nt)]”, in series [1], the Kd was 59.5 nM.

For “ATCCAGAGTGACGCAGCATGCGGGGAGAGGAGTGTGGGATGGGTTTGTTTGTTTAGGGTGGACACGGTGGCTTAGT [N4 aptamer (76 nt)]”, in series [1], the Kd is 37.6 nM. On to “CTCCTCTGACTGTAACCACGTCGCGGGTAGGGGGAGGGCCGAGGAGGCTGTAGGTGGGTGGCATAGGTAGTCCAGAAGCC [BB1 aptamer (80 nt)]”, for which the Kd in series [1] was found to be 41.6 nM.

B1: BB1 aptamer (80 nt) (structured_DNA)
DNA: CTCCTCTGACTGTAACCACGTCGCGGGTAGGGGGAGGGCCGAGGAGGCTGTAGGTGGGTGGCATAGGTAGTCCAGAAGCC
As to B1, in the series with Glycophorin A [2], the Kd is 25 ± 10.3 nM.

B2: N1 aptamer (76 nt) (ssDNA)
DNA: ATCCAGAGTGACGCAGCACGGGTTGGGGCTGGTTGTGTGTTGTTTTTTTGGCTGTATGTGGACACGGTGGCTTAGT
Regarding B2, the Kd with Glycophorin A [3] was 356 ± 95.6 nM.

B3: N4 aptamer (76 nt) (structured_DNA)
DNA: ATCCAGAGTGACGCAGCATGCGGGGAGAGGAGTGTGGGATGGGTTTGTTTGTTTAGGGTGGACACGGTGGCTTAGT
Take B3: in the series with Glycophorin A [4], the Kd is 354 ± 227 nM.
